Paper PMC420458 (BMC Cell Biology, 2004)
Each block holds one binder with its values, some of them ahead of it.

Experiments:
GST-APC10 = GST-APC10 (UniProt Q9UM13 1-185); assay: pull-down
GST-HEF1 = target: T1, GST-HEF1 (human, UniProt Q14511 1-834); assay: pull-down
T1 sequence: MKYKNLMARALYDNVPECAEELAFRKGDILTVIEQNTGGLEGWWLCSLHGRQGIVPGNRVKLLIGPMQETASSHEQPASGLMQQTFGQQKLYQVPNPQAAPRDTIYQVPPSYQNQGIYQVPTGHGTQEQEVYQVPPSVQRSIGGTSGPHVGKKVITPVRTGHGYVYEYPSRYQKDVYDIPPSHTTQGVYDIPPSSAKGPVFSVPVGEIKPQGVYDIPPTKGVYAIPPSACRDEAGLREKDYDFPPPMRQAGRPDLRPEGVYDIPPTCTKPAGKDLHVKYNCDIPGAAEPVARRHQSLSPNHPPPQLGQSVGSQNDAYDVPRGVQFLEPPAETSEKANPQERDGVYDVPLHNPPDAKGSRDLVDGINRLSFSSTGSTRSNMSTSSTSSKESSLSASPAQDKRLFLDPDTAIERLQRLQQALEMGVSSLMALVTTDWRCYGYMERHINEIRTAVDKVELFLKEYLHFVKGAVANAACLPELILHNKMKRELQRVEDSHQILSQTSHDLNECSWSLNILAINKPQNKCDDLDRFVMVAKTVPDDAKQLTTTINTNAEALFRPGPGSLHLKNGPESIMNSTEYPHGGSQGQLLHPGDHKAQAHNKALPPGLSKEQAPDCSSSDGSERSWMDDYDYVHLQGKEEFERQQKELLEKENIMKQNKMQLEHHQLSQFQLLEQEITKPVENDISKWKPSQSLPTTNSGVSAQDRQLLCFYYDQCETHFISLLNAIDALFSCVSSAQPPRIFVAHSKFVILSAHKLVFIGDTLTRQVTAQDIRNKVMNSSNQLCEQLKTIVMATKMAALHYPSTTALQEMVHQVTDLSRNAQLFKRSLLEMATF

Sequence of GST-APC10 (Q9UM13 whole entry): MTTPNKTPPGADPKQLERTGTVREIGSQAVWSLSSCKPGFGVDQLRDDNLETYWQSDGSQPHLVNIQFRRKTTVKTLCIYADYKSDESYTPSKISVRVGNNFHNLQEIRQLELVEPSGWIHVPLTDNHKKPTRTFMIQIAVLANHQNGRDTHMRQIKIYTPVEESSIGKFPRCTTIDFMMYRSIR

percent of input protein bound (densitometry) (GST-APC10): 34%
percent of input protein bound (densitometry) (GST-HEF1): 23%
B2: Flag-tagged Smad3 d6 (domain or fragment)
chain: MSSILPFTPPIVKRLLGWKKGEQNGQEEKWCEKAVKSLVKKLKKTGQLDELEKAITTQNVNTKCITIPRSLDGRLQVSHRKGLPHVIYCRLWRWPDLHSHHELRAMELCEFAFNMKKDEVCVNPYHYQRVETPVLPPVLVPRHTEIPAEFPPLDDYSHSIPENTNFPAGIEPQSNIPETPPPGYLSEDGETSDHQMNHSMDAGSPNLSPNPMSPAHNNLDLQPVTYCEPAFWCSISYYELNQRVGETFHASQPSMTVDGFTDPSNSERFCLGLLSNVNRNAAVELTRRHIGRGVRLYYIGGEVFAECLSDSAIFVQSPNCNQRYGWHPA

percent of input protein bound (densitometry) (GST-APC10): 20%
percent of input protein bound (densitometry) (GST-HEF1): 24%
B4: Smad3/Smad1/Smad3 chimera (other)
chain: MSSILPFTPPIVKRLLGWKKGEQNGQEEKWCEKAVKSLVKKLKKTGQLDELEKAITTQNVNTKCITIPRSLDGRLQVSHRKGLPHVIYCRLWRWPDLHSHHELRAMELCEFAFNMKKDEVCVNPYHYQRVETPVLPPVLVPRHTEIPAEFPPLDDYSHSIPENTNFPAGIEPQSNIPETPPPGYLSEDGETSDHQMNHSMDAGSPNLSPNPMSPAHNNLDLQPVTYCEPAFWCSISYYELNNRVGEAFHASSTSVLVDGFTDPSNNKNRFCLGLLSNVVNRNAAVELTRRHIGRGVRLYYIGGEVFAECLSDSAIFVQSPNCNQRYGWHPATVCKIPPGCNLKIFNNQEFAALLAQSVNQGFEAVYQLTRMCTIRMSFVKGWGAEYRRQTVTSTPCWIELHLNGPLQWLDKVLTQMGSPSIRCSSV

Further lines, the binder ahead of its results:

B1: Flag-tagged Smad3 d4 (domain or fragment)
chain: MSSILPFTPPIVKRLLGWKKGEQNGQEEKWCEKAVKSLVKKLKKTGQLDELEKAITTQNVNTKCITIPRSLDGRLQVSHRKGLPHVIYCRLWRWPDLHSHHELRAMELCEFAFNMKKDEVCVNPYHYQRVETPVLPPVLVPRHTEIPAEFPPLDDYSHSIPENTNFPAGIEPQSNIPETPPPGYLSEDGETSDHQMNHSMDAGSPNLSPNPMSPAHNNLDLQPVTYCEPAFWCSISYYELNQRVGETFHASQPSMTVDGFTDPSNSERFCLGLLSNVNRNAAVELTRRHIGRGVRLYYIG
percent of input protein bound (densitometry) (GST-APC10): 17%
percent of input protein bound (densitometry) (GST-HEF1): 13%

B3: Flag-tagged Smad3 d2 (domain or fragment)
chain: MSSILPFTPPIVKRLLGWKKGEQNGQEEKWCEKAVKSLVKKLKKTGQLDELEKAITTQNVNTKCITIPRSLDGRLQVSHRKGLPHVIYCRLWRWPDLHSHHELRAMELCEFAFNMKKDEVCVNPYHYQRVETPVLPPVLVPRHTEIPAEFPPLDDYSHSIPENTNFPAGIEPQSNIPETPPPGYLSEDGETSDHQMNHSMDAGSPNLSPNPMSPAHNNLDLQPVTYCEPAFWCSISYYELNQRVGETFHASQPSMTVDGFTDPSNSERFCLGLLSNVNRNAAVELTRRHIGRGVRLYYIGGEVFAECLSDSAIFVQSPNCNQRYGWHPATVCKIPPGCNLKIFNNQEFAALLAQSVNQGFE
percent of input protein bound (densitometry) (GST-APC10): 95%
percent of input protein bound (densitometry) (GST-HEF1): 21%
